To fix the notation:
B1: iPS:327275 (bispecific antibody, human IgG1, kappa, lambda, N297G)
light 1: EIVLTQSPATLSLSPGERATLSCRASQSVGRSLHWYQQKPGQAPRLLIKYASQSLSGIPARFSGSGSGTDFTLTISSLEPEDFAVYYCHQSSRLPFTFGEGTKVDIKRTVAAPSVFIFPPSDEQLKSGTASVVCLLNNFYPREAKVQWKVDNALQSGNSQESVTEQDSKDSTYSLESTLTLSKADYEKHKVYACEVTHQGLSSPVTKSFNRGEC
heavy 1: not shown
light 2: not shown
heavy 2: EVQLVESGGGLVKPGGSLRLSCAASGFTFSNAWMSWVRQAPGKELEWVGRIKSKTDGGTTDYTAPVKGRFTISRDDSKNTLYLQMNSLKAEDTAVYYCTTDRTGYSISWSSYYYYYGMDVWGQGTTVTVSSASTKGPSVFPLAPSSKSTSGGTAALGCLVKDYFPEPVTVSWNSGALTSGVHTFPAVLQSSGLYSLESVVTVPSSSLGTQTYICNVNHKPSNTKVDKKVEPKSCDKTHTCPPCPAPELLGGPSVFLFPPKPKDTLMISRTPEVTCVVVDVSHEDPEVKFNWYVDGVEVHNAKTKPCEEQYGSTYRCVSVLTVLHQDWLNGKEYKCKVSNKALPAPIEKTISKAKGQPREPQVYTLPPSRKEMTKNQVSLTCLVKGFYPSDIAVEWESNGQPENNYKTTPPVLKSDGSFFLYSKLTVDKSRWQQGNVFSCSVMHEALHNHYTQKSLSLSPGK
B2: iPS:386736 (bispecific antibody, human IgG1, kappa, N297G)
light: DIQLTQSPSFLSASVGDRVTITCRASQSIGRSLHWYQQKPGKAPKLLIKYASQSLSGVPSRFSGSGSGTEFTLTISSLQPEDFATYYCHQSSRLPFTFGPGTKVDIKRTVAAPSVFIFPPSDEQLKSGTASVVCLLNNFYPREAKVQWKVDNALQSGNSQESVTEQDSKDSTYSLSSTLTLSKADYEKHKVYACEVTHQGLSSPVTKSFNRGEC
heavy: not shown
B3: iPS:386740 (bispecific antibody, human IgG1, kappa, N297G)
light: B2 light
heavy: not shown
B4: iPS:386750 (bispecific antibody, human IgG1, kappa, N297G)
light: B2 light
heavy: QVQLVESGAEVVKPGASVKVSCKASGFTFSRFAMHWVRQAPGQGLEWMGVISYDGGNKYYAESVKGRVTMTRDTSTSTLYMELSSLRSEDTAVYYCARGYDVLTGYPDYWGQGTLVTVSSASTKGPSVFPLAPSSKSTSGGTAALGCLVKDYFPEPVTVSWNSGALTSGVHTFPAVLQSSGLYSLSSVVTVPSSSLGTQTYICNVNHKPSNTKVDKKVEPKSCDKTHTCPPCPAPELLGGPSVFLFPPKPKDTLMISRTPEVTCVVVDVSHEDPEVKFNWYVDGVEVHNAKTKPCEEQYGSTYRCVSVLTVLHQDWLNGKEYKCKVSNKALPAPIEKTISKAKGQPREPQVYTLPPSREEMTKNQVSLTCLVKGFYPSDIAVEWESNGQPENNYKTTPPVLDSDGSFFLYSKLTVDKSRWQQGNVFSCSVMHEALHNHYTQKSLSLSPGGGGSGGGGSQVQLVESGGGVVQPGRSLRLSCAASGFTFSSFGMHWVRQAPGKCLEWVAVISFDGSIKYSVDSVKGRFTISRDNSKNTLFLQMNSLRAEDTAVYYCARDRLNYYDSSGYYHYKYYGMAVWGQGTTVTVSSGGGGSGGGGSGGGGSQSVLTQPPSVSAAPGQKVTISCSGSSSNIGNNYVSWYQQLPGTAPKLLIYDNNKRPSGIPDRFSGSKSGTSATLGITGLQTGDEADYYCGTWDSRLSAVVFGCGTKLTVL
B5: iPS:386758 (bispecific antibody, human IgG1, kappa, N297G)
light: B2 light
heavy: not shown
B6: iPS:386762 (bispecific antibody, human IgG1, kappa, N297G)
light: B2 light
heavy: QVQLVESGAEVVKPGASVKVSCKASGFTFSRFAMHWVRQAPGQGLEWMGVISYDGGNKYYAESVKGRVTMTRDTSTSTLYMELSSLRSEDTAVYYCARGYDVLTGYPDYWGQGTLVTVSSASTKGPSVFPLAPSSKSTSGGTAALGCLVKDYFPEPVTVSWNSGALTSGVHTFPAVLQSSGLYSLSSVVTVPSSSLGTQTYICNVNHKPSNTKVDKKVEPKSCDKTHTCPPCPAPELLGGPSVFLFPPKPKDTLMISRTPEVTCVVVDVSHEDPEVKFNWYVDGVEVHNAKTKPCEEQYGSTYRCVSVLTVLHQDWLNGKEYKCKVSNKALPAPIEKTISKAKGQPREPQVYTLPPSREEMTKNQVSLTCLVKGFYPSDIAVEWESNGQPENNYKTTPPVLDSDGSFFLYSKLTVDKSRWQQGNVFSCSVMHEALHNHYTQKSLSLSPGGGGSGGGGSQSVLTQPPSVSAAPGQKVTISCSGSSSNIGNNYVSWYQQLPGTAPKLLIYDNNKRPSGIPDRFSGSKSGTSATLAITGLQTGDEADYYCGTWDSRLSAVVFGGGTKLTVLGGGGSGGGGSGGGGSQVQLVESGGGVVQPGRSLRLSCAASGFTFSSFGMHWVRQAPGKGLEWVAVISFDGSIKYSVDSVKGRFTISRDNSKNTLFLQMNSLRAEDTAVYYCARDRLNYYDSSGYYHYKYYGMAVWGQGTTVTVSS
B7: iPS:386752 (bispecific antibody, human IgG1, kappa, N297G)
light: B2 light
heavy: not shown
B8: iPS:386760 (bispecific antibody, human IgG1, kappa, N297G)
light: B2 light
heavy: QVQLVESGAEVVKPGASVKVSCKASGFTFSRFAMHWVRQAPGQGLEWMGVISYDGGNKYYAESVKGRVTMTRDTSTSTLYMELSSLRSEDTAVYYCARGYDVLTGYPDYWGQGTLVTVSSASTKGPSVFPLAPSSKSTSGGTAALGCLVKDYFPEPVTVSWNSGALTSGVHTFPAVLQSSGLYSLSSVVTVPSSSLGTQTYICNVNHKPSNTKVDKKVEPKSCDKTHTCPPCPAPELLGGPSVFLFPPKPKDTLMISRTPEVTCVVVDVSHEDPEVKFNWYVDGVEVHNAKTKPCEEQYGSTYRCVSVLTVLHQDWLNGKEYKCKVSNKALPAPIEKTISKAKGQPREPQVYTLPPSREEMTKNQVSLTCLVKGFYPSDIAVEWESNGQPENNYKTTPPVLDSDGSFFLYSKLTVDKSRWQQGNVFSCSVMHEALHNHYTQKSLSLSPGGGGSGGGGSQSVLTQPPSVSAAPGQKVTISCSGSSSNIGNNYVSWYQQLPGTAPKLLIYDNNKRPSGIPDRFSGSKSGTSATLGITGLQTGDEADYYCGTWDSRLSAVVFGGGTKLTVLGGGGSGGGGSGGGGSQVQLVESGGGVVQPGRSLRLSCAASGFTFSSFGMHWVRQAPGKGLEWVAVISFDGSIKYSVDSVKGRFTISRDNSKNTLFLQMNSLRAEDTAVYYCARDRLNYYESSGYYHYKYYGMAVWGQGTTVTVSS
B9: iPS:386742 (bispecific antibody, human IgG1, kappa, N297G)
light: B2 light
heavy: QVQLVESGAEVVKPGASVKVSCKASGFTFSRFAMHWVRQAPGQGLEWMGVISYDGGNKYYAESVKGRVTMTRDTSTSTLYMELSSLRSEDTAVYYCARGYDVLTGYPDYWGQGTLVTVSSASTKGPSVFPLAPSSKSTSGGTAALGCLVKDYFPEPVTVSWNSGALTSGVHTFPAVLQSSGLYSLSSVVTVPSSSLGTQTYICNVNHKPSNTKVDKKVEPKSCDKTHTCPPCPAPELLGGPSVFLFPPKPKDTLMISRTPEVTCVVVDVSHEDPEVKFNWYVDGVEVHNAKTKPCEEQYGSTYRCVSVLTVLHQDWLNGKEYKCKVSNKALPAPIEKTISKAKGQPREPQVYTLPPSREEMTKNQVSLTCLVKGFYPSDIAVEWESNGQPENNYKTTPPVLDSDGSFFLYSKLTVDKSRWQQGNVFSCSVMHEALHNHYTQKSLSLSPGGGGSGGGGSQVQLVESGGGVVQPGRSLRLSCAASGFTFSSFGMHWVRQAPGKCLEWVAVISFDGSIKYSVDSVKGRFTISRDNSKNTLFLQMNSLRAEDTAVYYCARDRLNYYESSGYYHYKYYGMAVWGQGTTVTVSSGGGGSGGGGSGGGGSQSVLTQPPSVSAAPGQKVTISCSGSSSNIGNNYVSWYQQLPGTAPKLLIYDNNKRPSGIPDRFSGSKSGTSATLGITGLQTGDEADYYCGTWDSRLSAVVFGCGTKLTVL
B10: iPS:386738 (bispecific antibody, human IgG1, kappa, N297G)
light: B2 light
heavy: not shown
B11: iPS:386756 (bispecific antibody, human IgG1, kappa, N297G)
light: B2 light
heavy: not shown
B12: iPS:386748 (bispecific antibody, human IgG1, kappa, N297G)
light: B2 light
heavy: not shown
B13: iPS:386744 (bispecific antibody, human IgG1, kappa, N297G)
light: B2 light
heavy: not shown
B14: iPS:386754 (bispecific antibody, human IgG1, kappa, N297G)
light: B2 light
heavy: not shown
B15: iPS:386746 (bispecific antibody, human IgG1, kappa, N297G)
light: B2 light
heavy: not shown
B16: iPS:386764 (bispecific antibody, human IgG1, kappa, N297G)
light: B2 light
heavy: not shown
B17: iPS:386705 (bispecific antibody, human IgG1, lambda, N297G)
light: QSVLTQPPSVSAAPGQKVTISCSGSSSNIGNNYVSWYQQLPGTAPKLLIYDNNKRPSGIPDRFSGSKSGTSTTLGITGLQTGDEADYYCGTWDSRLSAVVFGGGTKLTVLGQPKANPTVTLFPPSSEELQANKATLVCLISDFYPGAVTVAWKADGSPVKAGVETTKPSKQSNNKYAASSYLSLTPEQWKSHRSYSCQVTHEGSTVEKTVAPTECS
heavy: not shown
B18: iPS:386711 (bispecific antibody, human IgG1, lambda, N297G)
light: B17 light with T72A, G75A
heavy: not shown
B19: iPS:386707 (bispecific antibody, human IgG1, lambda, N297G)
light: B17 light
heavy: not shown
B20: iPS:386715 (bispecific antibody, human IgG1, lambda, N297G)
light: B17 light
heavy: not shown
B21: iPS:386713 (bispecific antibody, human IgG1, lambda, N297G)
light: B17 light with T72A
heavy: not shown
B22: iPS:386725 (bispecific antibody, human IgG1, lambda, N297G)
light: B17 light
heavy: not shown
B23: iPS:386721 (bispecific antibody, human IgG1, lambda, N297G)
light: B17 light with T72A, G75A
heavy: not shown
B24: iPS:386723 (bispecific antibody, human IgG1, lambda, N297G)
light: B17 light with T72A
heavy: not shown
B25: iPS:386709 (bispecific antibody, human IgG1, lambda, N297G)
light: B17 light with T72A
heavy: not shown
B26: iPS:386727 (bispecific antibody, human IgG1, lambda, N297G)
light: B17 light with T72A
heavy: not shown
B27: iPS:386733 (bispecific antibody, human IgG1, lambda, N297G)
light: B17 light with T72A, G75A
heavy: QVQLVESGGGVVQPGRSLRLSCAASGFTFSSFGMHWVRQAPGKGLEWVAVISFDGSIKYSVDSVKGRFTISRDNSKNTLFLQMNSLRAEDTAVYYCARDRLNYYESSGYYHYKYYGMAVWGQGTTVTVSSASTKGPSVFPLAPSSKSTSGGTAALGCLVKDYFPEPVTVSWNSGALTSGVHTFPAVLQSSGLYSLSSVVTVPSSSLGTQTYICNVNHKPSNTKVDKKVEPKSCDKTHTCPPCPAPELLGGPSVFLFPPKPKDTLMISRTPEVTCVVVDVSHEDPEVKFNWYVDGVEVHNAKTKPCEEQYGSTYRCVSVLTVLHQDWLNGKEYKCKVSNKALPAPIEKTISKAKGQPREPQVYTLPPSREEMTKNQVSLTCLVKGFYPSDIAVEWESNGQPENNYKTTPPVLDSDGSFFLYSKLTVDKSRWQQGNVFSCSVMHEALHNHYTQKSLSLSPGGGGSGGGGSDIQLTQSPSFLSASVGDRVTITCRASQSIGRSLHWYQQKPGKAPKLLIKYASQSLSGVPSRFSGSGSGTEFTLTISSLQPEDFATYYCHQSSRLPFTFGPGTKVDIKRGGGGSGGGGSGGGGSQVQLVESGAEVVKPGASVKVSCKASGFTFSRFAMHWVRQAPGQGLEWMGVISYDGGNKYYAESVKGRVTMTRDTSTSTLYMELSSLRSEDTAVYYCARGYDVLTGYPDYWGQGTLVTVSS
B28: iPS:386719 (bispecific antibody, human IgG1, lambda, N297G)
light: B17 light with T72A
heavy: not shown
B29: iPS:386729 (bispecific antibody, human IgG1, lambda, N297G)
light: B17 light with T72A, G75A
heavy: not shown
B30: iPS:386717 (bispecific antibody, human IgG1, lambda, N297G)
light: B17 light
heavy: not shown
B31: iPS:386731 (bispecific antibody, human IgG1, lambda, N297G)
light: B17 light
heavy: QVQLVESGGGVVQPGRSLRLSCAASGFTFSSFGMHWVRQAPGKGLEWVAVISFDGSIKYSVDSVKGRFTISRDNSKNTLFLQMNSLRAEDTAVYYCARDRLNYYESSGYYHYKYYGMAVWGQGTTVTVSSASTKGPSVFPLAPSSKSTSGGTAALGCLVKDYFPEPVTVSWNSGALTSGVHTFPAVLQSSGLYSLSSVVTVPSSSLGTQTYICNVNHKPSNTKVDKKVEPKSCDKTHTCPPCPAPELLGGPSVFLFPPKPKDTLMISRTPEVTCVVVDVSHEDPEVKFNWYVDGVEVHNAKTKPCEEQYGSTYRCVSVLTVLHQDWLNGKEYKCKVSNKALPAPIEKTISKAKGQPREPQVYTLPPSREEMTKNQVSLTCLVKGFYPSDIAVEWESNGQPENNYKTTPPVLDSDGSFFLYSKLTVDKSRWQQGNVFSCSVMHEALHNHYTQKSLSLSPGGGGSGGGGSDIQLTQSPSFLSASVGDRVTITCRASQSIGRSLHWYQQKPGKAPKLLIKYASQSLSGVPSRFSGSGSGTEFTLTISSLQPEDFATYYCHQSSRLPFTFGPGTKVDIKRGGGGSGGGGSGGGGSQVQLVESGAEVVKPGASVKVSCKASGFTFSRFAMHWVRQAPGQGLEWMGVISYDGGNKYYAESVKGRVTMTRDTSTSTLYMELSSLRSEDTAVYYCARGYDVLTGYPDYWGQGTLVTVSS

This note sets out measurements from patent US20170306033A1 (Amgen, published 2017).

Where a chain is given by its changes, count along the chain named.

T1 sequence (Q16602 23-461 limits assumed, chain 1 of 2): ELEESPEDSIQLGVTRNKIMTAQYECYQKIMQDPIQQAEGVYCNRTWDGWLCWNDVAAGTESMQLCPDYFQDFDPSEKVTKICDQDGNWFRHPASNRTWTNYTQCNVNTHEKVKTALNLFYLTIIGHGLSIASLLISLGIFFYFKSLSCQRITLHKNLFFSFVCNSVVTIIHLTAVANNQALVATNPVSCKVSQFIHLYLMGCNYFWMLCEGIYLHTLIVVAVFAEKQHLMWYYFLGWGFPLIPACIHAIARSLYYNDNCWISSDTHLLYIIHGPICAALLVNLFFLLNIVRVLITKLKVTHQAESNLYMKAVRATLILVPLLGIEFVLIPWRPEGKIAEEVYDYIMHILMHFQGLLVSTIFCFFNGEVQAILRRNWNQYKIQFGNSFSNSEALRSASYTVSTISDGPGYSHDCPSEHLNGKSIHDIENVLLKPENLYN
T1 sequence (O60894 27-148 limits assumed, chain 2 of 2): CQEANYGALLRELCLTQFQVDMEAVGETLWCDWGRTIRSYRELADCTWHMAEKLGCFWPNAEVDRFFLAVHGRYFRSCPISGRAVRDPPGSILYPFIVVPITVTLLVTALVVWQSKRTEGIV

The first test addresses T1, human CGRP receptor (human, UniProt Q16602 23-461; O60894 27-148). Nature of the test: cell-based or functional assay.
Consider B1, for which the “% inhibition of human CGRPR” value came out at 85%.

A further test has as its target T2, human PAC1 receptor (human, UniProt P41586 21-468).
T2 sequence: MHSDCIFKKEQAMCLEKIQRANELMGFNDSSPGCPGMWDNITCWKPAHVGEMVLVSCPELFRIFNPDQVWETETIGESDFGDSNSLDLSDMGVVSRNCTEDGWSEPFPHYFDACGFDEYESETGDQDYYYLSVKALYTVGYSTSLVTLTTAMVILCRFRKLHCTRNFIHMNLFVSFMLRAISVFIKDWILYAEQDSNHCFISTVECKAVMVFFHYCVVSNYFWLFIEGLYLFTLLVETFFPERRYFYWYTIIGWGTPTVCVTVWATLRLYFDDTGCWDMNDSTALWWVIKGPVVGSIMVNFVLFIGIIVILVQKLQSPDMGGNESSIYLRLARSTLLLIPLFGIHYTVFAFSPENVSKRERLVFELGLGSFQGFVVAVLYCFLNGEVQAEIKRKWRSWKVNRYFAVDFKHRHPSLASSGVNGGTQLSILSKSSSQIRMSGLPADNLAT
The experiment in a line: cell-based or functional assay.
On to B1, for which the “% inhibition of human PAC1” value came out at 86%.

The next test concerns the target T1, human CGRP receptor. The experiment in a line: cell-based or functional assay. This is another data set of the same source.
As for B2, the “Human CGRP Receptor IC50” value was determined as 0.9 nM.

B3: the “Human CGRP Receptor IC50” value turned out to be 0.56 nM.

With B4, the “Human CGRP Receptor IC50” value was 0.58 nM.

Consider B5, for which the “Human CGRP Receptor IC50” value turned out to be 2.32 nM.

On to B6, for which the “Human CGRP Receptor IC50” value worked out at 2.8 nM.

B7: the “Human CGRP Receptor IC50” value turned out to be 0.62 nM.

For B8, the “Human CGRP Receptor IC50” value is 2.11 nM.

In the case of B9, the “Human CGRP Receptor IC50” value is 0.61 nM.

Take B10: the “Human CGRP Receptor IC50” value is 0.74 nM.

With B11, the “Human CGRP Receptor IC50” value amounted to 1.88 nM.

With B12, the “Human CGRP Receptor IC50” value was determined as 0.63 nM.

Take B13: the “Human CGRP Receptor IC50” value was 0.61 nM.

In the case of B14, the “Human CGRP Receptor IC50” value came out at 0.54 nM.

For B15, the “Human CGRP Receptor IC50” value amounted to 0.79 nM.

Take B16: the “Human CGRP Receptor IC50” value came to 2.61 nM.

On to B17, for which the “Human CGRP Receptor IC50” value was found to be 0.43 nM.

Regarding B18, the “Human CGRP Receptor IC50” value came out at 0.53 nM.

B19: the “Human CGRP Receptor IC50” value turned out to be 0.47 nM.

On to B20, for which the “Human CGRP Receptor IC50” value came out at 0.43 nM.

Take B21: the “Human CGRP Receptor IC50” value turned out to be 0.37 nM.

Consider B22, for which the “Human CGRP Receptor IC50” value was determined as 0.42 nM.

Turning to B23, the “Human CGRP Receptor IC50” value amounted to 0.22 nM.

As to B24, the “Human CGRP Receptor IC50” value was 0.27 nM.

As to B25, the “Human CGRP Receptor IC50” value stood at 0.47 nM.

Take B26: the “Human CGRP Receptor IC50” value came out at 0.72 nM.

Regarding B27, the “Human CGRP Receptor IC50” value is 0.34 nM.

With B28, the “Human CGRP Receptor IC50” value came out at 0.41 nM.

With B29, the “Human CGRP Receptor IC50” value is 0.47 nM.

For the molecule B30, the “Human CGRP Receptor IC50” value is 0.33 nM.

With B31, the “Human CGRP Receptor IC50” value stood at 0.4 nM.

Another test addresses T2, human PAC1 receptor. The experiment in a line: cell-based or functional assay. The source holds these as a separate data set.
B2: the “Human PAC1 Receptor IC50” value was 5.43 nM.

For B3, the “Human PAC1 Receptor IC50” value is 4.4 nM.

Regarding B4, the “Human PAC1 Receptor IC50” value worked out at 4.54 nM.

Take B5: the “Human PAC1 Receptor IC50” value was 4.11 nM.

With B6, the “Human PAC1 Receptor IC50” value was determined as 3.55 nM.

With B7, the “Human PAC1 Receptor IC50” value was found to be 6.08 nM.

In the case of B8, the “Human PAC1 Receptor IC50” value was determined as 4.67 nM.

As for B9, the “Human PAC1 Receptor IC50” value stood at 6.39 nM.

As for B10, the “Human PAC1 Receptor IC50” value came to 5.09 nM.

Consider B11, for which the “Human PAC1 Receptor IC50” value was determined as 7.29 nM.

For B12, the “Human PAC1 Receptor IC50” value turned out to be 2.85 nM.

Consider B13, for which the “Human PAC1 Receptor IC50” value came to 3.63 nM.

In the case of B14, the “Human PAC1 Receptor IC50” value was 5.74 nM.

On to B15, for which the “Human PAC1 Receptor IC50” value was 3.28 nM.

B16: the “Human PAC1 Receptor IC50” value was found to be 11.9 nM.

On to B17, for which the “Human PAC1 Receptor IC50” value amounted to 605 nM.

B18: the “Human PAC1 Receptor IC50” value stood at 1210 nM.

For the molecule B19, the “Human PAC1 Receptor IC50” value worked out at 740 nM.

On to B20, for which the “Human PAC1 Receptor IC50” value worked out at 689 nM.

As for B21, the “Human PAC1 Receptor IC50” value worked out at 603 nM.

As for B22, the “Human PAC1 Receptor IC50” value stood at 549 nM.

Turning to B23, the “Human PAC1 Receptor IC50” value was determined as 197 nM.

Regarding B24, the “Human PAC1 Receptor IC50” value is 248 nM.

For the molecule B25, the “Human PAC1 Receptor IC50” value was found to be 432 nM.

As to B26, the “Human PAC1 Receptor IC50” value was determined as 371 nM.

For B27, the “Human PAC1 Receptor IC50” value is 74.3 nM.

For B28, the “Human PAC1 Receptor IC50” value turned out to be 940 nM.

With B29, the “Human PAC1 Receptor IC50” value was found to be 565 nM.

For B30, the “Human PAC1 Receptor IC50” value amounted to 580 nM.

For B31, the “Human PAC1 Receptor IC50” value amounted to 347 nM.
